Results: US20220162308A1 (Novartis, published 2022)
Where a chain is given by its changes, count along the chain named.

Columns and labels:
Human CD48 on cells = target: T1, Human CD48 on cells (human, UniProt P09326 27-220); experiment: cell-based or functional assay
T1 sequence: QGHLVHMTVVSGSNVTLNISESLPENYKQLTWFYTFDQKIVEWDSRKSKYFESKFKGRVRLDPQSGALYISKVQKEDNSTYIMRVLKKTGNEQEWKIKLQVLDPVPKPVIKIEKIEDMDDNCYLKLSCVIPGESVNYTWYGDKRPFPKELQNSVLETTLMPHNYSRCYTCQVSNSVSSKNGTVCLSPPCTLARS

2249 = target: T2, 2249 (Homo sapiens, UniProt P09326); experiment: ELISA: 1:10 diluted HEK293T supernatant of the CD48-mouse IgG construct; antibody at 25, 250 and 500 ng/mL; detection with goat anti-mouse IgG (H+L) HRP; Mean OD450-570
T2 chain: T1 sequence with D44A, S45A, R46G
Description: (§1) Applying the 3D structure models of the CD48 protein, three exposed loops of the protein were selected and changed by site directed mutagenesis utilizing PCR. Antibody binding epitopes were determined by ELISA. […] The template construct, hCD48EC:mouse-Ig originates from the expression plasmid generated to express the human CD48-mouse IgG1 fusion protein for immunization amplified from the commercial vector “Trueclone, CD48 (untagged)-Human CD48 molecule” (Origene, NM_001778.2). Primer for the site directed mutagenesis were synthesized by Microsynth (Switzerland).

[1] = target: T3, Non-mutated CD48-mouse IgG fusion construct (human; mouse, UniProt P09326 27-220, limits assumed); experiment: as above
T3 construct: Used as HEK293T culture supernatant in the ELISA; also called hCD48EC:mouse-Ig; human CD48-mouse IgG1 fusion protein
T3 sequence: T1 sequence
Description: as §1

Construct #2248 = target: T4, Construct #2248 (human; mouse, UniProt P09326 27-220, limits assumed); experiment: as above
T4 construct: also called hCD48EC:mouse-Ig with ENYKQ modified into GSSKQ
T4 chain: T1 sequence with E25G, N26S, Y27S
Description: as §1

Construct #2250 = target: T5, Construct #2250 (human; mouse, UniProt P09326 27-220, limits assumed); experiment: as above
T5 construct: also called hCD48EC:mouse-Ig with KKTGNE modified into KKDASG
T5 chain: T1 sequence with T89D, G90A, N91S, E92G
Description: as §1

B1: humanized CD48A (antibody, human IgG1, kappa)
heavy: not shown
light: EIVLTQSPDFQSVTPKEKVTITCRASQSIGSNIHWYQQKPDQSPKLLIKYTSESISGVPSRFSGSGSGTDFTLTINSLEAEDAATYYCQQSNSWPLTFGGGTKVEIKRTVAAPSVFIFPPSDEQLKSGTASVVCLLNNFYPREAKVQWKVDNALQSGNSQESVTEQDSKDSTYSLSSTLTLSKADYEKHKVYACEVTHQGLSSPVTKSFNRGEC
notes: also called humanized MEM102 antibody; anti-CD48A
IC50 (nM), cell proliferation/survival (CellTiter-Glo), KMS-21-BM, with anti-human Fc-VC-MMAE (Human CD48 on cells): 0.016 nM | IC50 (nM), cell proliferation/survival (CellTiter-Glo), KMS-27, with anti-human Fc-VC-MMAE (Human CD48 on cells): 0.001 nM | IC50 (nM), cell proliferation/survival (CellTiter-Glo), NCI-H929, with anti-human Fc-VC-MMAE (Human CD48 on cells): 0.007 nM | Span (Amax), KMS-21-BM, with anti-human Fc-VC-MMAE (Human CD48 on cells): 92 | Span (Amax), KMS-27, with anti-human Fc-VC-MMAE (Human CD48 on cells): 93.4 | Span (Amax), NCI-H929, with anti-human Fc-VC-MMAE (Human CD48 on cells): 100 | EC50 (read off the curve) 2249: ~0.03 µg/mL | EC50 (read off the curve) [1]: ~0.02 µg/mL | binding result (Construct #2248): no binding (tested: 500 ng/mL) | EC50 (read off the curve) (Construct #2250): ~0.02 µg/mL
